These are literature values, as cited in publication PMC5530503.

By Kd is commonly meant a measure of binding affinity in units of concentration.

For the series, the target named is VEGFR2 (Homo sapiens) (UniProt P35968).
Sequence of UniProt P35968 (P35968 20-1356): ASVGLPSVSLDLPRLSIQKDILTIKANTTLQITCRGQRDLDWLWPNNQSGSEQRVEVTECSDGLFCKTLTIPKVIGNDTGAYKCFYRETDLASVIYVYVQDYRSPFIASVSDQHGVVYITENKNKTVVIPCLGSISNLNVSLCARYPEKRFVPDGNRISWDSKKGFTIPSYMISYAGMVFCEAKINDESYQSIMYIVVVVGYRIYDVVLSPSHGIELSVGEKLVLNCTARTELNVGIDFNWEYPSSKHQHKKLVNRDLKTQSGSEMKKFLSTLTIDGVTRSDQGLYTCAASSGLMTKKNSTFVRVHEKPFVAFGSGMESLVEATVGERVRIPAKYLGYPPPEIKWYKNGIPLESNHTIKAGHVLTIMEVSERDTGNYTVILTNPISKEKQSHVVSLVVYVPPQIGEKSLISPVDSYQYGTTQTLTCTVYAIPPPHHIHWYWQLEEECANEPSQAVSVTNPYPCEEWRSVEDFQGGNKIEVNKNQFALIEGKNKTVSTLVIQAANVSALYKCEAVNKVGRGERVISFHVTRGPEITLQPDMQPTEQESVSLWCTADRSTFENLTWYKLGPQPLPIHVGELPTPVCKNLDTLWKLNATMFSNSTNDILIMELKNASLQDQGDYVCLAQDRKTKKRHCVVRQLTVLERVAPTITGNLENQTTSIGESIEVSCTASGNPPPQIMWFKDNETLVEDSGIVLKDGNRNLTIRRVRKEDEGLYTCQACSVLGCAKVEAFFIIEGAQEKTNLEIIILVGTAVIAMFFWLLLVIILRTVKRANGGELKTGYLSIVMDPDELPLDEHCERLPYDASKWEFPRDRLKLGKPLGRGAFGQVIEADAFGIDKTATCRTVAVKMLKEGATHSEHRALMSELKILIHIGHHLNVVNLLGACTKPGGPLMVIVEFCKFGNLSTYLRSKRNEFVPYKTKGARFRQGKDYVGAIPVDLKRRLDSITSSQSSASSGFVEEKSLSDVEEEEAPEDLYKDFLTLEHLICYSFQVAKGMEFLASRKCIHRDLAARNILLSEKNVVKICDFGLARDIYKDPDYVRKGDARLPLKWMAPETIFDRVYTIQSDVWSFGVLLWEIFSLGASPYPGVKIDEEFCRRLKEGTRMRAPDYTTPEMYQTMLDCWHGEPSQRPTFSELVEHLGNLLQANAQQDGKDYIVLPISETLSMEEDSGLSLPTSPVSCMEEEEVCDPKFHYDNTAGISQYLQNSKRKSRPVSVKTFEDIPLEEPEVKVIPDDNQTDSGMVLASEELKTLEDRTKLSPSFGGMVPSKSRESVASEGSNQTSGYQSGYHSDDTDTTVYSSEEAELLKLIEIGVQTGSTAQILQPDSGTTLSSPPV

With VEGF (from UniProt P15692), the Kd is 0.037 nM.
